# B1: Slowpoke-binding protein (Drosophila melanogaster (Fruit fly)), Q8IPH9 (parent)
# chain: MFKFNKAAQQQRIDNRNSAVTGHDPFVRPPVPEKKVRNIMKKLHKANGLKRSNSAIEFDVSALTAANRRQIYSSNRSASSEQDNSDLSEHSEKSPLVSARLDNLARLFFSKSMPAETGSRDTIDSVLTTRPNIKYQYSALDSGNGIVERSPRERAQREKALNATQEWIQGANGRYEVIAHLDEIGSRHGKNWFLVTDASVRTDRLQTLLPLPPDCVAFEDLPPNECAREILMELLGSLHHPYIYPVLDLGFLRNSSYNYACLVTPFNSRGSLKDLIYKAQWNEPWARKYTRKPNGLPVSQVQRLGRQILEALLFLKERGFPLHGHLHSGNVILQNGAARLSGLENGLLGLSSRINAVMWSRSVTEIENVDIVCFGHLLYEMCTGQELTTPKPSMRVLEMELQHYPQIGQTRKQILEILGLIFEPPSGVCPSVEDLVLCDLFRSIDLRELRGPCFSTIKPSLSRSTLNLLQAVKKRQCASLGHSLSEANSPCTPPSTPHDRRTGVLPAPYEVFRMY
# partner: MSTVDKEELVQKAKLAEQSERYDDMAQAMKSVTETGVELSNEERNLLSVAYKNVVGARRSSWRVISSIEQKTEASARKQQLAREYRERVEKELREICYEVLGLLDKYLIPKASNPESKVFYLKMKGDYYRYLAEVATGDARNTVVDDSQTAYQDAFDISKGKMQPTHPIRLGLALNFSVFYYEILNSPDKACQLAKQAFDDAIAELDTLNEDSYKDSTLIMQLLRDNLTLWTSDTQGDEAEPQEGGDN
# Variants of: B1
# Conditions: with 1433z_drome 14-3-3zeta
row,Variant,effect of a mutation on the interaction
1,S54A;S79A,decreasing interaction strength

# — IntAct's records for PubMed 10230800
